Assay results: patent publication US11866736B2, “Protein prostheses for mitochondrial diseases or conditions” (The General Hospital Corporation, priority 2015, dated 2024)

Experiments:
[1] = system: HeLa Tet3G cells; assay: Cell proliferation assays: rescue of the proliferation defect induced by respiratory chain inhibitors (nuclei counting); assay type: cell-based, human; conditions: for rescue of piericidin induced proliferation defect by supplementation: HeLa Tet3G Luciferase cells, compound added to medium, 3 days
Procedure: Five hundred HeLa Tet3G NDI1, Luciferase, LbNOX or mitoLbNOX cells were seeded in 200 μl of DMEM (DMEM (US Biological, D9800), 3.7 g/L NaHCO3, 10% dialyzed FBS (Life Technologies, 26400-044)) per well in a black 96-well plate with clear bottom (Corning, 3904). Twenty four hours after seeding, media was exchanged to DMEM without pyruvate (DMEM (US Biological, D9802), 15.9 mg/L phenol red, 3.7 g/L NaHCO3, 10% dialyzed FBS (Life Technologies, 26400-044))±10 μg/ml chloramphenicol±30 ng/ml ethidium bromide±1 mM pyruvate±300 ng/ml doxycycline. After 0, 2, 3, 4, 5 and 6 days, media was aspirated and cells were fixed by adding 100 μl of 4% paraformaldehyde in PBS and incubating at room temperature for at least 30 min. Paraformaldehyde solution was aspirated and cells were stained with 200 μl of 1 μg/ml Hoechst 33345 in PBS. Plates were covered with sealing aluminum foil and stored at 4° C. before counting cells in each well with Molecular Dynamics IMAGEXPRESS® Ultra (see “Nuclei counting using Molecular Devices IMAGEXPRESS® Ultra,” below).
One thousand HeLa Tet3G NDI1, Luciferase, LbNOX or mitoLbNOX cells were seeded in 200 μl of DMEM (DMEM (US Biological, D9800), 3.7 g/L NaHCO3, 10% dialyzed FBS (Life Technologies, 26400-044)) per well in a black 96-well plate with clear bottom (Corning, 3904). Twenty four hours after seeding, 10 μl of 6 μg/ml doxycycline (300 ng/ml final concentration) or water was added to each well. Twenty four hours after addition of doxycycline, media was exchanged to DMEM without pyruvate (DMEM (US Biological, D9802), 15.9 mg/L phenol red, 3.7 g/L NaHCO3, 10% dialyzed FBS (Life Technologies, 26400-044)), ±1 μM piericidin, ±1 μM antimycin, ±1 mM pyruvate and ±300 ng/ml doxycycline. After 0, 1, 2, 3 and 4 days, media was aspirated and cells were fixed by adding 100 μl of 4% paraformaldehyde in PBS and incubating at room temperature for at least 30 min. Paraformaldehyde solution was aspirated and cells were stained with 200 μl of 1 μg/ml Hoechst 33345. Plates were covered with sealing aluminum foil and stored at 4° C. before counting cells in each well with Molecular Dynamics IMAGEXPRESS® Ultra (see “Nuclei counting using Molecular Devices IMAGEXPRESS® Ultra,” below).
Two thousand HeLa Tet3G Luciferase cells were seeded in 200 μl of DMEM (DMEM (US Biological, D9800), 3.7 g/L NaHCO3, 10% dialyzed FBS (Life Technologies, 26400-044)) per well in a black 96-well plate with clear bottom (Corning, 3904). Twenty four hours after seeding, media was exchanged to DMEM without pyruvate (DMEM (US Biological, D9802), 15.9 mg/L phenol red, 3.7 g/L NaHCO3, 10% dialyzed FBS (Life Technologies, 26400-044))±1 μM piericidin, ±indicated concentrations of pyruvate, lactate, malate, oxaloacetate, nicotinamide mononucleotide ([…]) or PJ34. After 3 days, media was aspirated and cells were fixed by adding 100 μl of 4% paraformaldehyde in PBS and incubating at room temperature for at least 30 min. Paraformaldehyde solution was aspirated and cells were stained with 200 μl of 1 μg/ml Hoechst 33345. Plates were covered with sealing aluminum foil and stored at 4° C. before counting cells in each well with Molecular Dynamics IMAGEXPRESS® Ultra (see “Nuclei counting using Molecular Devices IMAGEXPRESS® Ultra,” below).
Images of 96-well plates with fixed cells stained with Hoechst 33345 were collected using Molecular Devices IMAGEXPRESS® Micro XLS. Four images were taken to cover the whole well. Images were analyzed and nuclei number per well was counted using CellProfiler 2.0 image analysis software (Carpenter, et al., Genome Biol., 7:R100, 2006; and Kamentsky, et al., Bioinformatics, 27:1179, 2011). […]

[2] = system: HeLa Tet3G cells; assay: Glucose concentration-dependent cell survival; assay type: cell-based, human; conditions: 1 μM piericidin, 24 hours
Procedure: Images of 96-well plates with fixed cells stained with Hoechst 33345 were collected using Molecular Devices IMAGEXPRESS® Micro XLS. Four images were taken to cover the whole well. Images were analyzed and nuclei number per well was counted using CellProfiler 2.0 image analysis software (Carpenter, et al., Genome Biol., 7:R100, 2006; and Kamentsky, et al., Bioinformatics, 27:1179, 2011).
Ten thousand HeLa Tet3G NDI1, Luciferase, LbNOX or mitoLbNOX cells were seeded in 200 μl of DMEM (DMEM (US Biological, D9800), 3.7 g/L NaHCO3, 10% dialyzed FBS (Life Technologies, 26400-044)) per well of a black 96-well plate with clear bottom (Corning, 3904). Twenty four hours after seeding, 10 μl of 6 μg/ml doxycycline (300 ng/ml final concentration) or water was added to each well. Twenty four hours after addition of doxycycline, media was exchanged to DMEM (DMEM (US Biological, D9800), 3.7 g/L NaHCO3, 10% dialyzed FBS (Life Technologies, 26400-044))±300 ng/ml doxycycline. […] After 24 hours, media was aspirated and cells were fixed by adding 100 μl of 4% paraformaldehyde in PBS and incubating at room temperature for at least 30 min. Paraformaldehyde solution was aspirated and cells were stained with 200 μl of 1 μg/ml Hoechst 33345. Plates were covered with sealing aluminum foil and stored at 4° C. before counting cells in each well with Molecular Dynamics IMAGEXPRESS® Ultra (see “Nuclei counting using Molecular Devices IMAGEXPRESS® Ultra,” above).

CC(O)C(=O)O (stereo not drawn) [lactate, reference compound]
rescue of piericidin induced proliferation defect by supplementation ([1]; 1 μM piericidin): do not

NC(=O)c1ccc[n+]([C@@H]2O[C@H](COP(=O)([O-])O)[C@@H](O)[C@H]2O)c1 [PMN, nicotinamide mononucleotide, reference compound]
rescue of piericidin induced proliferation defect by supplementation ([1]; 1 μM piericidin): did not rescue

CN(C)CC(=O)Nc1ccc2[nH]c(=O)c3ccccc3c2c1 [PJ34, reference compound]
rescue of piericidin induced proliferation defect by supplementation ([1]; 1 μM piericidin): did not rescue

O=C(O)CC(O)C(=O)O (stereo not drawn) [malate, reference compound]
rescue of piericidin induced proliferation defect by supplementation ([1]; 1 μM piericidin): do not

B1: Ndi1: yeast (S. cerevisiae) NADH dehydrogenase Ndi1 protein, positive control (protein, UniProt P32340 27-513, looked up)
Rotenone-insensitive …: STGVENSGAGPTSFKTMKVIDPQHSDKPNVLILGSGWGAISFLKHIDTKKYNVSIISPRSYFLFTPLLPSAPVGTVDEKSIIEPIVNFALKKKGNVTYYEAEATSINPDRNTVTIKSLSAVSQLYQPENHLGLHQAEPAEIKYDYLISAVGAEPNTFGIPGVTDYGHFLKEIPNSLEIRRTFAANLEKANLLPKGDPERRRLLSIVVVGGGPTGVEAAGELQDYVHQDLRKFLPALAEEVQIHLVEALPIVLNMFEKKLSSYAQSHLENTSIKVHLRTAVAKVEEKQLLAKTKHEDGKITEETIPYGTLIWATGNKARPVITDLFKKIPEQNSSKRGLAVNDFLQVKGSNNIFAIGDNAFAGLPPTAQVAHQEAEYLAKNFDKMAQIPNFQKNLSSRKDKIDLLFEENNFKPFKYNDLGALAYLGSERAIATIRSGKRTFYTGGGLMTFYLWRILYLSMILSARSRLKVFFDWIKLAFFKRDFFKGL
rescue of proliferation defect caused by ethidium bromide ([1]; 30 ng/ml ethidium bromide, no pyruvate, doxycycline-inducible expression): not
rescue of proliferation defect caused by antimycin ([1]; 1 μM antimycin, no pyruvate, doxycycline-inducible expression): not
rescue of proliferation defect caused by piericidin ([1]; 1 μM piericidin, no pyruvate, doxycycline-inducible expression): rescued
rescue of proliferation defect caused by chloramphenicol ([1]; 10 μg/ml chloramphenicol, no pyruvate, doxycycline-inducible expression): not
effect on decrease in cell number (cell survival) at low glucose concentrations in the presence of piericidin [2]: rescued
